The target of this assay is receptor protein(s) / binding site of Cry1Ab core toxin on Brush Border Membrane Vesicles (BBMV's) f (Spodoptera frugiperda).

In turn, “Cry1Ab core toxin protein (activated core toxin prepared by trypsin digestion of the Cry1Ab protein) (from UniProt P0A370 29-612)” had an IC50 of 5 nM.

Broadly, the IC50 is the concentration needed to halve the response being measured.
